# Test results taken from IntAct's records for PubMed 31515488.
# B1: Heat shock factor protein 2 (Homo sapiens), Q03933 (parent)
# chain: MKQSSNVPAFLSKLWTLVEETHTNEFITWSQNGQSFLVLDEQRFAKEILPKYFKHNNMASFVRQLNMYGFRKVVHIDSGIVKQERDGPVEFQHPYFKQGQDDLLENIKRKVSSSKPEENKIRQEDLTKIISSAQKVQIKQETIESRLSELKSENESLWKEVSELRAKHAQQQQVIRKIVQFIVTLVQNNQLVSLKRKRPLLLNTNGAQKKNLFQHIVKEPTDNHHHKVPHSRTEGLKPRERISDDIIIYDVTDDNADEENIPVIPETNEDVISDPSNCSQYPDIVIVEDDNEDEYAPVIQSGEQNEPARESLSSGSDGSSPLMSSAVQLNGSSSLTSEDPVTMMDSILNDNINLLGKVELLDYLDSIDCSLEDFQAMLSGRQFSIDPDLLVDLFTSSVQMNPTDYINNTKSENKGLETTKNNVVQPVSEEGRKSKSKPDKQLIQYTAFPLLAFLDGNPASSVEQASTTASSEVLSSVDKPIEVDELLDSSLDPEPTQSKLVRLEPLTEAEASEATLFYLCELAPAPLDSDMPLLDS
# B2: Mediator of RNA polymerase II transcription subunit 18 (Homo sapiens), Q9BUE0 (parent)
# chain: MEAPPVTMMPVTGGTINMMEYLLQGSVLDHSLESLIHRLRGLCDNMEPETFLDHEMVFLLKGQQASPFVLRARRSMDRAGAPWHLRYLGQPEMGDKNRHALVRNCVDIATSENLTDFLMEMGFRMDHEFVAKGHLFRKGIMKIMVYKIFRILVPGNTDSTEALSLSYLVELSVVAPAGQDMVSDDMKNFAEQLKPLVHLEKIDPKRLM
# partner: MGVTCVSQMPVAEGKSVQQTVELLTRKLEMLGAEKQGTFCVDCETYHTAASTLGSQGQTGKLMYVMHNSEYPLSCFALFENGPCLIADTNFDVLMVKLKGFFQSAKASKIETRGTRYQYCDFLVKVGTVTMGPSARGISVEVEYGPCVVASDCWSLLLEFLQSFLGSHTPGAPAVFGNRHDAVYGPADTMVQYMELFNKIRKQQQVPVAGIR
# B3: Zinc finger protein Aiolos (Homo sapiens), Q9UKT9 (parent)
# chain: MEDIQTNAELKSTQEQSVPAESAAVLNDYSLTKSHEMENVDSGEGPANEDEDIGDDSMKVKDEYSERDENVLKSEPMGNAEEPEIPYSYSREYNEYENIKLERHVVSFDSSRPTSGKMNCDVCGLSCISFNVLMVHKRSHTGERPFQCNQCGASFTQKGNLLRHIKLHTGEKPFKCHLCNYACQRRDALTGHLRTHSVEKPYKCEFCGRSYKQRSSLEEHKERCRTFLQSTDPGDTASAEARHIKAEMGSERALVLDRLASNVAKRKSSMPQKFIGEKRHCFDVNYNSSYMYEKESELIQTRMMDQAINNAISYLGAEALRPLVQTPPAPTSEMVPVISSMYPIALTRAEMSNGAPQELEKKSIHLPEKSVPSERGLSPNNSGHDSTDTDSNHEERQNHIYQQNHMVLSRARNGMPLLKEVPRSYELLKPPPICPRDSVKVINKEGEVMDVYRCDHCRVLFLDYVMFTIHMGCHGFRDPFECNMCGYRSHDRYEFSSHIARGEHRALLK
# partner: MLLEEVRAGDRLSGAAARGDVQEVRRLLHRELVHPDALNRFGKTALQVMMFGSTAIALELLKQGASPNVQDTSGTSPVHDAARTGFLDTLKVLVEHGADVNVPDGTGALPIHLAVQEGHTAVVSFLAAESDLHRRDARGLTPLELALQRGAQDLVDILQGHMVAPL
# Variants of: B1
# Details: with mtus2_human MTUS2, Q5JR59
# mtus2_human MTUS2, Q5JR59, sequence (Q5JR59 whole entry): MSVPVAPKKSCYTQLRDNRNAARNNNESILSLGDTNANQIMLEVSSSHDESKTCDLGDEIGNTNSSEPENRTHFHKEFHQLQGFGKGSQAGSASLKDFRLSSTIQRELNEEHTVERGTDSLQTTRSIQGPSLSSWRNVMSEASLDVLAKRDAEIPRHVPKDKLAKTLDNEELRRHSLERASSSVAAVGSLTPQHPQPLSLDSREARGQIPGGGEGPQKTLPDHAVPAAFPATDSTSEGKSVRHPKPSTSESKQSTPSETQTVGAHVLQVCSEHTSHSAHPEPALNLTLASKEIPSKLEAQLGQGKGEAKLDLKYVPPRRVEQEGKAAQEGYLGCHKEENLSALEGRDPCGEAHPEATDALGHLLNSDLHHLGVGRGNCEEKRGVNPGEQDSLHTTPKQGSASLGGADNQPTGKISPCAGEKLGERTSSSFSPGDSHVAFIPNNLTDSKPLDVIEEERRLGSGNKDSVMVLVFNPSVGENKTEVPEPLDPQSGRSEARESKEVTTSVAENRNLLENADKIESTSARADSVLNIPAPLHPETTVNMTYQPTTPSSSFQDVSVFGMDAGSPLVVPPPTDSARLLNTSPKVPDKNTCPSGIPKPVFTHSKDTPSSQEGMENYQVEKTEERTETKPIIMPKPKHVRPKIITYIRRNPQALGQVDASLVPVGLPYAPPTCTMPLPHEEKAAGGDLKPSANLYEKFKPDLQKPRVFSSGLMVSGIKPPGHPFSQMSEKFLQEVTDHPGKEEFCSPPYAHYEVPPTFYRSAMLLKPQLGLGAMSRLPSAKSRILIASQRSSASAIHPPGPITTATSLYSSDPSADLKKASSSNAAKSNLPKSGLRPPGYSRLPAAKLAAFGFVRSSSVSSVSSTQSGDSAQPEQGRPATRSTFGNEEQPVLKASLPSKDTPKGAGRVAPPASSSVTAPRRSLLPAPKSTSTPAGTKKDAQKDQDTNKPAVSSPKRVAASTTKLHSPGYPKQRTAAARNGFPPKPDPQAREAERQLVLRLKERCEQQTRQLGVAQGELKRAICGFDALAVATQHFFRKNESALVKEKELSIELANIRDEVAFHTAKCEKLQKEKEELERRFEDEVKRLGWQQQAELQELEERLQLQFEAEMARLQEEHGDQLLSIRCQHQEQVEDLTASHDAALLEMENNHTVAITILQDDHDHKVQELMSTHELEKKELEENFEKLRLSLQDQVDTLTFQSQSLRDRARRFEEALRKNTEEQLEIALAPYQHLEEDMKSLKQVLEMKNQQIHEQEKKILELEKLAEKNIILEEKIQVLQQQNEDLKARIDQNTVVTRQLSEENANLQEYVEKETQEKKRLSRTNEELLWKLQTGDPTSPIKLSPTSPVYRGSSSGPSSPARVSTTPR
row,Variant,effect of a mutation on the interaction
1,D222V,with no effect
2,Q34H,with no effect

# Variants of: B1
# Details: with nup62_human NUP62, P37198
# nup62_human NUP62, P37198, sequence (P37198 whole entry): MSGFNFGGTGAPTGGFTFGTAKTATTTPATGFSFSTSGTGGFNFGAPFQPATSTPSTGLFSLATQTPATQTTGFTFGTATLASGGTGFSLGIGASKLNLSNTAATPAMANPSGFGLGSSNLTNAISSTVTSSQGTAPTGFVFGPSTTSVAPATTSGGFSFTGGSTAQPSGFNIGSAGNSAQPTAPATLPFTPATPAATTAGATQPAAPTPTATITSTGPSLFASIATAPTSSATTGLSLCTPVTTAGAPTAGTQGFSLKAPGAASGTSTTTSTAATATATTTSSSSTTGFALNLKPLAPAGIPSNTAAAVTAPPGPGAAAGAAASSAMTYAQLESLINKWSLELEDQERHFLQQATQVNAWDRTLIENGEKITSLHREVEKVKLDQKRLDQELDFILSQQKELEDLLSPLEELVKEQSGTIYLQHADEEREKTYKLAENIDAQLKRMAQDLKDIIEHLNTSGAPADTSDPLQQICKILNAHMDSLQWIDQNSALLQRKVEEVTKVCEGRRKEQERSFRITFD
row,Variant,effect of a mutation on the interaction
1,D222V,with no effect
2,Q34H,with no effect

# Variants of: B1
# Details: with wdr5_human WDR5, P61964
row,Variant,effect of a mutation on the interaction
1,D222V,with no effect
2,Q34H,with no effect

# Variants of: B1
# Details: with tpm3_human TPM3, P06753
# tpm3_human TPM3, P06753, sequence (P06753 whole entry): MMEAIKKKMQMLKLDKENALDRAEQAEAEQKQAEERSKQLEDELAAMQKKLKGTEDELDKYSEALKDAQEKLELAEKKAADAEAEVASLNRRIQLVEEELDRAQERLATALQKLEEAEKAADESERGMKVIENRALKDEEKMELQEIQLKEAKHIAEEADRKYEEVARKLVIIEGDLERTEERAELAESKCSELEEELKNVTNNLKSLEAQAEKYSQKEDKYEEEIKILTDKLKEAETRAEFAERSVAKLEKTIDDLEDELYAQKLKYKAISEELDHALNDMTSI
row,Variant,effect of a mutation on the interaction
1,D222V,with no effect
2,Q34H,with no effect

# Variants of: B2
# Details: with med20_human MED20, Q9H944
row,Variant,effect of a mutation on the interaction
1,M19V,with no effect

# Variants of: B3
# Details: with cdn2d_human CDKN2D
row,Variant,effect of a mutation on the interaction
1,N119D,with no effect
2,A24V,with no effect

# Variants of: B3
# Details: with cdn2d_human CDKN2D
# Remark: another data set of the same source
row,Variant,effect of a mutation on the interaction
1,I338M,with no effect
